Results reported in patent JP2008532476A (dated 2008).

Target: T1, recombinant mouse Tie1-Fc (mouse, UniProt Q06806 23-755)
T1 construct: extracellular domain; also called mouse Tie1-Fc antigen; mouse Tie1-Fc fusion protein; not shown: Fc
T1 sequence (looked up): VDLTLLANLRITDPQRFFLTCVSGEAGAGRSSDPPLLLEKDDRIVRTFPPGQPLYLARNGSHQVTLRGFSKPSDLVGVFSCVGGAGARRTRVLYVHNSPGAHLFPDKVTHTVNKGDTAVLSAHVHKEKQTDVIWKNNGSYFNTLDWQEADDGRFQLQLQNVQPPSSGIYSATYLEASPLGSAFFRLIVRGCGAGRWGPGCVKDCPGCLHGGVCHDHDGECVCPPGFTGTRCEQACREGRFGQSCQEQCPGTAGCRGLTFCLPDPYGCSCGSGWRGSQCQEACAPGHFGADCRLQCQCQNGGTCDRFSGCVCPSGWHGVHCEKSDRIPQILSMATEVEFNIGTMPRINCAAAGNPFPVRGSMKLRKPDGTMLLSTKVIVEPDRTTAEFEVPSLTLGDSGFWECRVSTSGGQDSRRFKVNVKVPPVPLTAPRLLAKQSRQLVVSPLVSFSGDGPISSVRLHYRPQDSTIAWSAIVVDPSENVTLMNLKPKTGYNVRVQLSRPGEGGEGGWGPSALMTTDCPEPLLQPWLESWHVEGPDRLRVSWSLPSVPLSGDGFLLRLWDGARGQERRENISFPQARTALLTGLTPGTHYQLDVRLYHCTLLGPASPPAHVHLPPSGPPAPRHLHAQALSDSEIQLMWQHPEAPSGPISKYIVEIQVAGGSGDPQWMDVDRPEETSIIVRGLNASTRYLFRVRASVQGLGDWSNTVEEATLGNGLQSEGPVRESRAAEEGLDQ
Assay: SPR (BIAcore 3000), Fab as analyte over mouse Tie1-Fc immobilised on a sensor chip

Kd: ~3 nM
B1: E3b Fab (germline E3 (DX-2220) Fab) (Fab, V domains shown)
VH: EVQLLESGGGLVQPGGSLRLSCAASGFTFSMYGMVWVRQAPGKGLEWVSVISPSGGNTGYADSVKGRFTISRDNSKNTLYLQMNSLRAEDTAVYYCARAPRGYSYGYYYWGQGTLVTVSS
VL: DIQMTQSPSSLSASVGDRVTITCRASQGIGHYLAWYQQKPGKVPKLLIYTASTLQSGVPSRFSGSGSGTDFTLTISSLQPEDVATYYCQQFNSYPHTFGQGTRLEIK
